Experimental findings from article PMC6848931, “Exportin-1-Dependent Nuclear Export of DEAD-box Helicase DDX3X is Central to its Role in Antiviral Immunity” (Cells, 2019) are described below.

The target in the experiment is Exportin-1-Ran-GTP complex (human, UniProt O14980 1-1071; P62826 1-216, Q69L). In words: AUC; sedimentation velocity with Ran-GTP present; proteins incubated together at equimolar concentrations at 20 °C for 30 min in GF1 buffer (20 mM Tris-Cl pH 7.5, 100 mM NaCl, 5 mM MgOAc, 2 mM DTT); 40,000 rpm, 280 nm, c(s) analysis. As to conditions: both partners purified.

B1: 6His-DDX3X(1-580) (domain or fragment)
chain: MSHVAVENALGLDQQFAGLDLNSSDNQSGGSTASKGRYIPPHLRNREATKGFYDKDSSGWSSSKDKDAYSSFGSRSDSRGKSSFFSDRGSGSRGRFDDRGRSDYDGIGSRGDRSGFGKFERGGNSRWCDKSDEDDWSKPLPPSERLEQELFSGGNTGINFEKYDDIPVEATGNNCPPHIESFSDVEMGEIIMGNIELTRYTRPTPVQKHAIPIIKEKRDLMACAQTGSGKTAAFLLPILSQIYSDGPGEALRAMKENGRYGRRKQYPISLVLAPTRELAVQIYEEARKFSYRSRVRPCVVYGGADIGQQIRDLERGCHLLVATPGRLVDMMERGKIGLDFCKYLVLDEADRMLDMGFEPQIRRIVEQDTMPPKGVRHTMMFSATFPKEIQMLARDFLDEYIFLAVGRVGSTSENITQKVVWVEESDKRSFLLDLLNATGKDSLTLVFVETKKGADSLEDFLYHEGYACTSIHGDRSQRDREEALHQFRSGKSPILVATAVAARGLDISNVKHVINFDLPSDIEEYVHRIGRTGRVGNLGLATSFFNERNINITKDLLDLLVEAKQEVPSWLENMAYEHHY
notes: DEAD-box helicase 3, X-linked (DDX3X), human, residues 1-580 of the 662-residue protein; Cloned in pCOLD-IV with an N-terminal 6His tag; no removal of the tag is described; also called wild-type DDX3X(1‒580); DEAD-box helicase 3, X-linked; source: E. coli BL21(DE3), purified (Ni-NTA, Superdex 200 SEC)
For B1, the binding result is listed as “binds”.

B2: DDX3X(1-168) (domain or fragment)
chain: MSHVAVENALGLDQQFAGLDLNSSDNQSGGSTASKGRYIPPHLRNREATKGFYDKDSSGWSSSKDKDAYSSFGSRSDSRGKSSFFSDRGSGSRGRFDDRGRSDYDGIGSRGDRSGFGKFERGGNSRWCDKSDEDDWSKPLPPSERLEQELFSGGNTGINFEKYDDIPV
notes: DEAD-box helicase 3, X-linked (DDX3X), human, residues 1-168; The purification section names only the 1-580 constructs; the expression and purification of the 1-168 fragment are not described on their own; also called DDX3X(1–168) fragment; source: purified recombinant; truncations were cloned in pCOLD-IV for bacterial expression
Take B2: the binding result is listed as “binds”.
